How the values were obtained:
Experiment in all cases: SEC; Superdex S200 10/300 GL, buffer A (20 mM Tris-HCl pH 7.5, 18% glycerol) with 150 mM NaCl; mass from calibration with standard proteins; quaternary structure of the purified protein
[1] = target: FdpA (CD1157), class A flavodiiron protein of Clostridioides difficile (Clostridioides difficile)
[2] = target: revRbr1 (CD1474), reverse rubrerythrin 1 of Clostridioides difficile (Clostridioides difficile (strain 630Δerm genomic DNA))
[3] = target: revRbr2 (CD1524), reverse rubrerythrin 2 of Clostridioides difficile (Clostridioides difficile (strain 630Δerm genomic DNA))

**Q.** For “FdpA (CD1157), class A flavodiiron protein of Clostridioides difficile (enzyme)”, which stoichiometry N [1] is on record?
**A.** 2

**Q.** Which stoichiometry N [2] does the source give for “revRbr1 (CD1474), reverse rubrerythrin 1 of Clostridioides difficile (enzyme)” here?
**A.** 4

**Q.** How did the stoichiometry N [3] turn out when “revRbr2 (CD1524), reverse rubrerythrin 2 of Clostridioides difficile (enzyme)” was run?
**A.** 4
